Molecular target: T1, Human survivin (1-142 aa, N-terminal calmodulin tag, recombinant, #SUR0801, ATGen Co., Ltd.) (human, UniProt O15392 1-142)
T1 construct: range 1-142; Bought recombinant protein, used in solution at 100, 10 and 1 ng/mL; also called antigen; not shown: N-terminal calmodulin tag of the bought product
Assay: sandwich ELISA; VHH-STM complex adsorbed to the plate as capture, survivin in solution, detection with rabbit anti-survivin polyclonal antibody

T1 sequence (O15392 whole entry, the tested form may be a part): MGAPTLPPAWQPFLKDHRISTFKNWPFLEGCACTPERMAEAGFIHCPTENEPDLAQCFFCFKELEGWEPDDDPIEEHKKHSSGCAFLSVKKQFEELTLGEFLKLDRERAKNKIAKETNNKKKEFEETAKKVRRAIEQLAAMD

B1: VHH-STM complex (antibody complex consisting of an anti-human survivin VHH antibody and a stefin A mutant) (VHH)
VHH: EVQLVESGGGSVQAGGSLRLSCAASGVSNTDMIMIWFRQAPGKEREGVLAAIYKNSTYYADSVKGRFTISQDNAKNTVYLQMNSLKPEDTAIYYCAAIRAVIGRHIRPHIYWGQGTQVTVSS
notes: Single-chain fusion: anti-human survivin VHH, linker, stefin A mutant (STM), His tag, C-terminal Cys; Secreted from Brevibacillus choshinensis and Ni-NTA purified; Adsorbed directly to the plate as capture reagent; also called VHH-STM conjugate; VHH antibody-STM conjugate
binding result: binds
